{"source": "paper PMC2660596", "molecular_target": "Bacillus thuringiensis Cry11Ba toxin (Bacillus thuringiensis) (UniProt Q45730)", "test": "ELISA", "data": [{"substance": "APN2t, truncated 70-kDa AgAPN2 peptide (residues 228 to 843) (domain or fragment)", "values": [{"measurement": "Kd", "result": 6.4, "unit": "nM"}]}]}
